Test [1] has as its target wild-type cystic fibrosis transmembrane conductance regulator (CFTR) (Homo sapiens (Human)) (UniProt P13569). Put plainly: CFTR co-IP, MudPIT MS; BHK wt.
The target of test [2] is ΔF508 CFTR (Homo sapiens (Human)) (UniProt P13569). In words: CFTR co-IP, MudPIT MS; BHK ΔF508.
The target in test [3] is wild-type cystic fibrosis transmembrane conductance regulator (CFTR) (Homo sapiens (Human)) (UniProt P13569). Put plainly: CFTR co-IP, MudPIT MS; cell line not stated.
Sequence of wild-type cystic fibrosis transmembrane conductance regulator (CFTR) (Homo sapiens (Human)) (P13569 whole entry): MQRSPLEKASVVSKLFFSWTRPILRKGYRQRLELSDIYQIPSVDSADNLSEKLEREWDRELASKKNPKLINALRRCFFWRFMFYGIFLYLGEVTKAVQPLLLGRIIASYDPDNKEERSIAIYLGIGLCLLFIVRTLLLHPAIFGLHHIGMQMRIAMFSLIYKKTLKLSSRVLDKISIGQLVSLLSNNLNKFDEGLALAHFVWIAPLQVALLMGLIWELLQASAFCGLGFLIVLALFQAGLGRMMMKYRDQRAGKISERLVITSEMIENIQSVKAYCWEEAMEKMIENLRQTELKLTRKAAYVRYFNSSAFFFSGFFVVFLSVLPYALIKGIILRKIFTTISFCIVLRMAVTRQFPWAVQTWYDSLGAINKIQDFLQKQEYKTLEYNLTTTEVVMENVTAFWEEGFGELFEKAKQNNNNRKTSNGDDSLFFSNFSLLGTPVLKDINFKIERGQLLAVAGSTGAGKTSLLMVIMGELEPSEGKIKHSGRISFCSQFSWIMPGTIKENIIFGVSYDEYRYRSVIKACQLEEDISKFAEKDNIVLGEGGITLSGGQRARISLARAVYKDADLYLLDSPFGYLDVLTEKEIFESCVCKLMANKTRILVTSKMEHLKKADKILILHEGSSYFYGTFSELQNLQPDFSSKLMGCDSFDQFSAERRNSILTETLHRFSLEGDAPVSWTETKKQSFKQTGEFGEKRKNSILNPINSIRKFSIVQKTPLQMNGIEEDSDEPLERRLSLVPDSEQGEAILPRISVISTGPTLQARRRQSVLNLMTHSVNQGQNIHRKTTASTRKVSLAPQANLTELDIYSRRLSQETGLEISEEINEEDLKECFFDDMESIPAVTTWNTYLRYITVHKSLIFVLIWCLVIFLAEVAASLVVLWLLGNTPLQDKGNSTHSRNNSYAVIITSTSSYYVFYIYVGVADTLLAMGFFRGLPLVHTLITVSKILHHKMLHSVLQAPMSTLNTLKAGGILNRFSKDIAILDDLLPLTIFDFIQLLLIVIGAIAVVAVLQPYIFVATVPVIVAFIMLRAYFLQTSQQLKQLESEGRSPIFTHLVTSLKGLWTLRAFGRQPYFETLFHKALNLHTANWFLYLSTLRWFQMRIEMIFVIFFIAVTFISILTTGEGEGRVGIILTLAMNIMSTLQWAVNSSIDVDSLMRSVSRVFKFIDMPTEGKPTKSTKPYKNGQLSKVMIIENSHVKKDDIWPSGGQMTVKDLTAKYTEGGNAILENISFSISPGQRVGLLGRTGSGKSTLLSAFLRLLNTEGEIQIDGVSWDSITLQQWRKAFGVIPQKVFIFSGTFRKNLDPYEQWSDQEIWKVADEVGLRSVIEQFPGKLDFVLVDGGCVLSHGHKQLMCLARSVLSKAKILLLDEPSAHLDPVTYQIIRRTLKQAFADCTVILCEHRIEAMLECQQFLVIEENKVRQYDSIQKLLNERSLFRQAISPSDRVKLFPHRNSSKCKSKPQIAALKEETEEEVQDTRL

Sequence of ΔF508 CFTR (Homo sapiens (Human)) (P13569 other isoform, or with tags, fused parts or gaps mutant limits assumed): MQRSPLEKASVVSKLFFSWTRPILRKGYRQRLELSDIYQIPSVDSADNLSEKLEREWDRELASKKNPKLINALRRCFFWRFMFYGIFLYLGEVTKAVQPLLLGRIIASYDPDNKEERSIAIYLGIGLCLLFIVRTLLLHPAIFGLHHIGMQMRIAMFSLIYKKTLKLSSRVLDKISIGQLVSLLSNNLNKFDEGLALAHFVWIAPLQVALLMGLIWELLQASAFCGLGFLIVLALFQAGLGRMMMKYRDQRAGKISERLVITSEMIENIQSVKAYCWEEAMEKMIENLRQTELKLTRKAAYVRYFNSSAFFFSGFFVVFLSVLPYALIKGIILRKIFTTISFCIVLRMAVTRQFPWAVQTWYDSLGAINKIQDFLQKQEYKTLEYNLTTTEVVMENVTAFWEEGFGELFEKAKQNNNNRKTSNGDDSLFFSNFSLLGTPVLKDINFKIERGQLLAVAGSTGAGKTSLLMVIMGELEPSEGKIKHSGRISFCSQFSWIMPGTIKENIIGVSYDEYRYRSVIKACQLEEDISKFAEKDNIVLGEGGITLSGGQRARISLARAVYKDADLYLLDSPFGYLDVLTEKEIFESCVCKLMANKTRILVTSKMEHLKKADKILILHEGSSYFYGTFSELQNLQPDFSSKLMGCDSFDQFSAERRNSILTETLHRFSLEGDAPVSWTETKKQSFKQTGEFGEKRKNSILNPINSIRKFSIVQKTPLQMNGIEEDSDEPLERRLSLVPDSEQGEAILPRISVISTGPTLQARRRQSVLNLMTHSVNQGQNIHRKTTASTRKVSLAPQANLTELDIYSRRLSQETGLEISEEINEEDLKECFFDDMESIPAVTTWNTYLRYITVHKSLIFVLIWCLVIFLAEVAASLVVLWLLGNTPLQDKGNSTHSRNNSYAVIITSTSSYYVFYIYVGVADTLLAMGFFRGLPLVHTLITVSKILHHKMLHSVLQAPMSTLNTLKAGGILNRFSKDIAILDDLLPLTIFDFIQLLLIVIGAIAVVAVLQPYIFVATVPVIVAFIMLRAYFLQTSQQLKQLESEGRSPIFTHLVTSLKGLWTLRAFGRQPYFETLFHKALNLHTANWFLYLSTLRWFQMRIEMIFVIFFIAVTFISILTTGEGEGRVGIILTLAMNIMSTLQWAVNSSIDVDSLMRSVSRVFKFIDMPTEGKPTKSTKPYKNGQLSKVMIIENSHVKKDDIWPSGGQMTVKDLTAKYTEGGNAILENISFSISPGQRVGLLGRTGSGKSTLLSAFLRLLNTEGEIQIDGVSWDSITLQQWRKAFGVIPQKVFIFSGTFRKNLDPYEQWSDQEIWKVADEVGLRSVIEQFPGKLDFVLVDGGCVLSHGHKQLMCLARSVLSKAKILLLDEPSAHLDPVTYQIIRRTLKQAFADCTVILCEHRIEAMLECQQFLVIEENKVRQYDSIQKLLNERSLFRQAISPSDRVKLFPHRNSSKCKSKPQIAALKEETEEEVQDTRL

In test [1], Calumenin (from UniProt O43852 20-315) returned a % sequence coverage of 7%, a total spectra of 3 spectra and a unique spectra of 3 spectra.
In test [1], TCP1 (from UniProt P11983 1-556) had a % sequence coverage of 9%, a total spectra of 5 spectra and a unique spectra of 3 spectra. In test [2], this substance displayed a % sequence coverage of 10%, a total spectra of 5 spectra and a unique spectra of 3 spectra.
In test [3], “clathrin, light chain (from UniProt O08585 1-235)” came in with a % sequence coverage of 13%, a total peptide spectra of 11 spectra and a unique peptide spectra of 3 spectra.
For “sorting nexin 4 (from UniProt O95219 1-450)”, in that order: 3%, 5 spectra and 3 spectra.
Regarding “Reticulocalbin (from UniProt Q05186 24-325)”, in test [1], the % sequence coverage was determined as 50%, the total spectra was 19 spectra and the unique spectra is 14 spectra. In test [2], this substance had a % sequence coverage of 27%, a total spectra of 8 spectra and a unique spectra of 5 spectra.
In test [1], Hsp90β (from UniProt P11499 2-724) had a % sequence coverage of 21%, a total spectra of 18 spectra and a unique spectra of 11 spectra. In test [2], the % sequence coverage is 36%, the total spectra is 49 spectra and the unique spectra stood at 24 spectra.
Turning to VPS 4A (from UniProt Q9UN37 1-437), in test [3], the % sequence coverage was found to be 5%, the total peptide spectra turned out to be 2 spectra and the unique peptide spectra stood at 2 spectra.
In the case of “Hsp40-A1 (Hdj2) (from UniProt P31689 1-394)”, in test [1], the % sequence coverage turned out to be 40%, the total spectra worked out at 25 spectra and the unique spectra worked out at 13 spectra. For the same substance, in test [2], the % sequence coverage was 31%, the total spectra was found to be 33 spectra and the unique spectra came out at 10 spectra.
With CLCA1 (from UniProt A8K7I4 22-914), in test [3], the % sequence coverage was 2%, the total peptide spectra came to 2 spectra and the unique peptide spectra amounted to 2 spectra.
Take Hsp70B′ (from UniProt P17066 1-643): in test [1], the % sequence coverage turned out to be 3%, the total spectra turned out to be 5 spectra and the unique spectra is 3 spectra. Further, in test [2], the % sequence coverage stood at 10%, the total spectra worked out at 14 spectra and the unique spectra came out at 8 spectra.
In test [3], flotillin 2 (from UniProt Q60634 2-428) returned a % sequence coverage of 5%, a total peptide spectra of 2 spectra and a unique peptide spectra of 2 spectra.
With GRP75 (from UniProt P38647 47-679), in test [2], the % sequence coverage amounted to 34%, the total spectra worked out at 40 spectra and the unique spectra came out at 23 spectra.
The like results for Hsp105 (from UniProt Q61699 2-858) were, in that order, 10%, 6 spectra and 5 spectra.
Take BAG-3 (from UniProt Q9JLV1 2-577): in test [2], the % sequence coverage worked out at 12%, the total spectra came out at 5 spectra and the unique spectra was 4 spectra.
In test [2], FKBP38 (from UniProt O35465 1-402) registered a % sequence coverage of 17%, a total spectra of 5 spectra and a unique spectra of 4 spectra.
Consider “Hsp40-A2 (Hdj3) (from UniProt O60884 1-409)”, for which, in test [1], the % sequence coverage was found to be 28%, the total spectra stood at 16 spectra and the unique spectra was 6 spectra. Further, in test [2], the % sequence coverage worked out at 32%, the total spectra came to 19 spectra and the unique spectra came to 9 spectra.
As to “RalBP1 associated Eps domain containing protein (Reps1) (from UniProt O54916 1-795)”, in test [3], the % sequence coverage is 6%, the total peptide spectra stood at 2 spectra and the unique peptide spectra stood at 2 spectra.
In the case of BAG-2 (from UniProt O95816 2-211), in test [1], the % sequence coverage came to 10%, the total spectra was 2 spectra and the unique spectra was 2 spectra. Also, in test [2], the % sequence coverage is 28%, the total spectra was 20 spectra and the unique spectra is 7 spectra.
On to Hsp70-1A (from UniProt P0DMV8 2-641), for which, in test [1], the % sequence coverage is 8%, the total spectra amounted to 6 spectra and the unique spectra turned out to be 4 spectra. For the same substance, in test [2], the % sequence coverage amounted to 19%, the total spectra stood at 20 spectra and the unique spectra came out at 12 spectra.
In test [1], Hsp70-2 (from UniProt P54652 1-639) registered a % sequence coverage of 8%, a total spectra of 17 spectra and a unique spectra of 7 spectra. In addition, in test [2], the % sequence coverage came out at 16%, the total spectra was 57 spectra and the unique spectra is 23 spectra.
In test [2], “DnaJ-like protein (from UniProt P63036 1-394)” displayed a % sequence coverage of 34%, a total spectra of 35 spectra and a unique spectra of 11 spectra.
In test [1], GRP78 (from UniProt P20029 20-655) returned a % sequence coverage of 33%, a total spectra of 37 spectra and a unique spectra of 17 spectra. In test [2], this substance had a % sequence coverage of 40%, a total spectra of 85 spectra and a unique spectra of 30 spectra.
As for “Aha1, activator of heat shock 90 kDa protein ATPase homolog 1 (from UniProt O95433 1-338)”, in test [1], the % sequence coverage came out at 34%, the total spectra was 20 spectra and the unique spectra stood at 10 spectra. Further, in test [2], the % sequence coverage was 15%, the total spectra is 15 spectra and the unique spectra turned out to be 7 spectra.
With “Hsc-Hsp70/Hsp90 organizing protein (HOP) (from UniProt Q60864 1-543)”, in test [2], the % sequence coverage stood at 11%, the total spectra amounted to 4 spectra and the unique spectra was 4 spectra.
As to “Reticulocalbin 2 (from UniProt Q8BP92 26-320)”, in test [1], the % sequence coverage turned out to be 22%, the total spectra was 12 spectra and the unique spectra is 6 spectra. Moreover, in test [2], the % sequence coverage turned out to be 9%, the total spectra was 4 spectra and the unique spectra turned out to be 3 spectra.
In test [1], Hsc70 (from UniProt P63018 2-646) yielded a % sequence coverage of 48%, a total spectra of 132 spectra and a unique spectra of 39 spectra.
Regarding p23 (from UniProt Q15185 1-160), in test [2], the % sequence coverage stood at 16%, the total spectra was 2 spectra and the unique spectra stood at 2 spectra.
For “cyclophilin B (from UniProt P23284 34-216)”, in test [2], the % sequence coverage is 13%, the total spectra is 2 spectra and the unique spectra was determined as 2 spectra.
In test [1], “Hsp90, alpha (from UniProt P07900 2-732)” showed a % sequence coverage of 6%, a total spectra of 5 spectra and a unique spectra of 4 spectra. In test [2], the % sequence coverage was determined as 39%, the total spectra turned out to be 37 spectra and the unique spectra is 24 spectra.
Take Cdc37 (from UniProt Q61081 1-379): in test [2], the % sequence coverage amounted to 8%, the total spectra was 3 spectra and the unique spectra worked out at 2 spectra.

The values above are taken from US20080014191A1.
